Our source for the stoichiometry N values is article PMC6332680.

The target of assay [1] is E. coli ribose-phosphate pyrophosphokinase (EcKPRS) (E. coli (strain K12)). The assay can be described thus: crystal structure; 2.22 Å, space group C222_(1), three molecules in the asymmetric unit; hexamer from 3 molecules of the asymmetric unit and 3 symmetry related molecules; crystallised with 0.2 M magnesium chloride, 0.1 M HEPES pH 7.5, 30% PEG 400, 1 mM ADP, 291 K.
For assay [2] the target is unchanged. The assay can be described thus: SEC; size exclusion chromatography, data not shown. Background: In gel filtration, larger molecules generally elute earlier.

Usually stoichiometry N stands for a count of units in the complex or per binding partner. On to “E. coli ribose-phosphate pyrophosphokinase (EcKPRS) (enzyme)”, for which the stoichiometry N in assay [1] and in assay [2] was 6 each time.
